# Test results reported in PMC12433258, “Binding Differences of the Peptide‐Substrate–Binding Domain of Collagen Prolyl 4‐Hydroxylases I and II for Proline‐ and Hydroxyproline‐Rich Peptides” (Proteins, 2025).
# pKd: −log10 of the molar value.
# Legend:
# [1] = target: PSB‐II^142–236 construct (peptide‐substrate–binding domain of the α‐II subunit of human collagen prolyl 4‐hydroxylase II) (human) (UniProt O15460); test: ITC; 3 mM peptide titrated into 50 μM PSB‐II in the cell; 20 mM Tris, 50 mM NaCl, 50 mM glycine, pH 8.0; 25°C; one‐set‐of‐sites model with fixed stoichiometry (n = 1); three measurements
# PSB‐II^142–236 construct (peptide‐substrate–binding domain of the α‐II subunit of human collagen prolyl 4‐hydroxylase II) (human), sequence (O15460 163-257): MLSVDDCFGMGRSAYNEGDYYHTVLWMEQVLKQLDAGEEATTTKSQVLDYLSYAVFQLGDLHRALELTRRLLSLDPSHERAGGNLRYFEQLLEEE
# [2] = target: PSB‐I^143–238 construct (peptide‐substrate–binding domain of the α‐I subunit of human collagen prolyl 4‐hydroxylase I) (human) (UniProt P13674); test: ITC; 3 mM peptide titrated into 50 μM PSB‐I^143–238 in the cell; 20 mM Bis‐Tris, 100 mM glycine, pH 6.8; 25°C; one‐set‐of‐sites model with fixed stoichiometry (n = 1); three measurements
# PSB‐I^143–238 construct (peptide‐substrate–binding domain of the α‐I subunit of human collagen prolyl 4‐hydroxylase I) (human), sequence (P13674 160-255): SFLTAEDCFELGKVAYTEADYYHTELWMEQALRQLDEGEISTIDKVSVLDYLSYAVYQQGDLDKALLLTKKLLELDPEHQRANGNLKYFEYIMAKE
substance,measurement,setting,value
POG‐PAG‐POG peptide,pKd,[1],4.58
same,pKd,[2],4.10
same,dH,[2],-53.1 kJ/mol
